Test results taken from the Human Domainome abundance scans (Beltran et al. 2025).
± gives the uncertainty stated by the source.

B1: POU domain, class 3, transcription factor 4, residues 280 to 335; numbered along this chain, P49335 (parent)
chain: KKRTSIEVSVKGVLETHFLKCPKPAAQEISSLADSLQLEKEVVRVWFCNRRQKEKR

Variants of: B1
Experiment: abundance fitness (aPCA) (normalised: wild type 0, dead -1); higher = more abundant; growth selection in yeast, the domain comes from the species named
Conditions: Homo sapiens

Variant	abundance fitness
KKRTSIEVSVKGVLETHFLKCPKPAAQEISSLADSLQLEHEVVRVWFCNRRQKEKR [K40H]	0.099 ± 0.22
KKRTSIEVSVKGVLETHFLKCPKPAAQEISSLADSLQLELEVVRVWFCNRRQKEKR [K40L]	-0.418 ± 0.14
KKRTSIEVSVKGVLETHFLKCPKPAAQEISSLADSLQLEFEVVRVWFCNRRQKEKR [K40F]	0.195 ± 0.17
KKRTSIEVSVKGVLETHFLKCPKPAAQEISSLADSLQLEPEVVRVWFCNRRQKEKR [K40P]	0.348 ± 0.18
KKRTSIEVSVKGVLETHFLKCPKPAAQEISSLADSLQLEMEVVRVWFCNRRQKEKR [K40M]	-0.269 ± 0.15
KKRTSIEVSVKGVLETHFLKCPKPAAQEISSLADSLQLEDEVVRVWFCNRRQKEKR [K40D]	-0.287 ± 0.27
KKRTSIEVSVKGVLETHFLKCPKPAAQEISSLADSLQLEIEVVRVWFCNRRQKEKR [K40I]	-0.638 ± 0.27
KKRTSIEVSVKGVLETHFLKCPKPAAQEISSLADSLQLEGEVVRVWFCNRRQKEKR [K40G]	-0.441 ± 0.16
KKRTSIEVSVKGVLETHFLKCPKPAAQEISSLADSLQLESEVVRVWFCNRRQKEKR [K40S]	-0.188 ± 0.14
KKRTSIEVSVKGVLETHFLKCPKPAAQEISSLADSLQLEEEVVRVWFCNRRQKEKR [K40E]	0.192 ± 0.23
KKRTSIEVSVKGVLETHFLKCPKPAAQEISSLADSLQLECEVVRVWFCNRRQKEKR [K40C]	-0.154 ± 0.25
KKRTSIEVSVKGVLETHFLKCPKPAAQEISSLADSLQLETEVVRVWFCNRRQKEKR [K40T]	0.181 ± 0.16
KKRTSIEVSVKGVLETHFLKCPKPAAQEISSLADSLQLEWEVVRVWFCNRRQKEKR [K40W]	-0.539 ± 0.18
KKRTSIEVSVKGVLETHFLKCPKPAAQEISSLADSLQLEREVVRVWFCNRRQKEKR [K40R]	-0.071 ± 0.14
KKRTSIEVSVKGVLETHFLKCPKPAAQEISSLADSLQLENEVVRVWFCNRRQKEKR [K40N]	-0.248 ± 0.28
KKRTSIEVSVKGVLETHFLKCPKPAAQEISSLADSLQLEVEVVRVWFCNRRQKEKR [K40V]	0.097 ± 0.14
KKRTSIEVSVKGVLETHFLKCPKPAAQEISSLADSLQLEQEVVRVWFCNRRQKEKR [K40Q]	-0.063 ± 0.19
KKRTSIEVSVKGVLETHFLKCPKPAAQEISSLADSLQLEYEVVRVWFCNRRQKEKR [K40Y]	0.009 ± 0.2
KKRTSIEVSVKGVLETHFLKCPKPAAQEISSLADSLQLEAEVVRVWFCNRRQKEKR [K40A]	0.026 ± 0.15
KKRTSIEVSVKGVLETHFLKCPKPAAQEISSLADSLQLMKEVVRVWFCNRRQKEKR [E39M]	-0.478 ± 0.29
KKRTSIEVSVKGVLETHFLKCPKPAAQEISSLADSLQLDKEVVRVWFCNRRQKEKR [E39D]	0.122 ± 0.17
KKRTSIEVSVKGVLETHFLKCPKPAAQEISSLADSLQLPKEVVRVWFCNRRQKEKR [E39P]	-0.022 ± 0.17
KKRTSIEVSVKGVLETHFLKCPKPAAQEISSLADSLQLNKEVVRVWFCNRRQKEKR [E39N]	-0.134 ± 0.25
KKRTSIEVSVKGVLETHFLKCPKPAAQEISSLADSLQLGKEVVRVWFCNRRQKEKR [E39G]	-0.686 ± 0.16

Variant	abundance fitness
KKRTSIEVSVKGVLETHFLKCPKPAAQEISSLADSLQLVKEVVRVWFCNRRQKEKR [E39V]	-0.565 ± 0.18
KKRTSIEVSVKGVLETHFLKCPKPAAQEISSLADSLQLWKEVVRVWFCNRRQKEKR [E39W]	-0.746 ± 0.21
KKRTSIEVSVKGVLETHFLKCPKPAAQEISSLADSLQLQKEVVRVWFCNRRQKEKR [E39Q]	-0.522 ± 0.41
KKRTSIEVSVKGVLETHFLKCPKPAAQEISSLADSLQLKKEVVRVWFCNRRQKEKR [E39K]	-0.583 ± 0.34
KKRTSIEVSVKGVLETHFLKCPKPAAQEISSLADSLQLSKEVVRVWFCNRRQKEKR [E39S]	-0.074 ± 0.12
KKRTSIEVSVKGVLETHFLKCPKPAAQEISSLADSLQLFKEVVRVWFCNRRQKEKR [E39F]	-0.735 ± 0.34
KKRTSIEVSVKGVLETHFLKCPKPAAQEISSLADSLQLRKEVVRVWFCNRRQKEKR [E39R]	-0.572 ± 0.12
KKRTSIEVSVKGVLETHFLKCPKPAAQEISSLADSLQLIKEVVRVWFCNRRQKEKR [E39I]	-0.456 ± 0.25
KKRTSIEVSVKGVLETHFLKCPKPAAQEISSLADSLQLTKEVVRVWFCNRRQKEKR [E39T]	-0.421 ± 0.26
KKRTSIEVSVKGVLETHFLKCPKPAAQEISSLADSLQLHKEVVRVWFCNRRQKEKR [E39H]	-0.551 ± 0.43
KKRTSIEVSVKGVLETHFLKCPKPAAQEISSLADSLQLEKEVVGVWFCNRRQKEKR [R44G]	-0.473 ± 0.14
KKRTSIEVSVKGVLETHFLKCPKPAAQEISSLADSLQLEKEVVEVWFCNRRQKEKR [R44E]	0.182 ± 0.18
KKRTSIEVSVKGVLETHFLKCPKPAAQEISSLADSLQLEKEVVIVWFCNRRQKEKR [R44I]	-1.01 ± 0.36
KKRTSIEVSVKGVLETHFLKCPKPAAQEISSLADSLQLEKEVVNVWFCNRRQKEKR [R44N]	0.059 ± 0.23
KKRTSIEVSVKGVLETHFLKCPKPAAQEISSLADSLQLEKEVVLVWFCNRRQKEKR [R44L]	-0.686 ± 0.12
KKRTSIEVSVKGVLETHFLKCPKPAAQEISSLADSLQLEKEVVMVWFCNRRQKEKR [R44M]	-0.539 ± 0.22
KKRTSIEVSVKGVLETHFLKCPKPAAQEISSLADSLQLEKEVVAVWFCNRRQKEKR [R44A]	-0.193 ± 0.13
KKRTSIEVSVKGVLETHFLKCPKPAAQEISSLADSLQLEKEVVCVWFCNRRQKEKR [R44C]	-0.801 ± 0.38
KKRTSIEVSVKGVLETHFLKCPKPAAQEISSLADSLQLEKFVVRVWFCNRRQKEKR [E41F]	-0.841 ± 0.23
KKRTSIEVSVKGVLETHFLKCPKPAAQEISSLADSLQLEKHVVRVWFCNRRQKEKR [E41H]	-0.161 ± 0.21
KKRTSIEVSVKGVLETHFLKCPKPAAQEISSLADSLQLEKLVVRVWFCNRRQKEKR [E41L]	-0.955 ± 0.15
KKRTSIEVSVKGVLETHFLKCPKPAAQEISSLADSLQLEKKVVRVWFCNRRQKEKR [E41K]	-0.602 ± 0.21
KKRTSIEVSVKGVLETHFLKCPKPAAQEISSLADSLQLEKQVVRVWFCNRRQKEKR [E41Q]	-0.792 ± 0.5
